This note sets out measurements from patent US20240190939A1.

For assay [1], the target named is CD47-His. Description: ELISA: hCD47 His capture, IgG HRP detection. A general note: An ELISA detects its analyte on a solid surface through an enzyme-linked reagent.
Assay [2] addresses recombinant CD155. Description: ELISA: CD155/PVR capture, Fc-HRP detection.
Assay [3] has as its target CD155PVR-His. Description: ELISA: 'CD115/PVR Capture' as printed (legend: CD155PVR-His), Fc-HRP detection.
In assay [4] the target is CD155PVR-His. Description: ELISA: CD155-His capture, IgG detection.
The target in assay [5] is mouse LTbR on CHO-K1 cells (mouse) (UniProt P50284). Briefly: flow cytometry on CHO-K1 cells expressing murine LTbR (the sentence names the second value 'for mCD172a(SIRPα)').
Chain of mouse LTbR on CHO-K1 cells (mouse) (P50284 31-415): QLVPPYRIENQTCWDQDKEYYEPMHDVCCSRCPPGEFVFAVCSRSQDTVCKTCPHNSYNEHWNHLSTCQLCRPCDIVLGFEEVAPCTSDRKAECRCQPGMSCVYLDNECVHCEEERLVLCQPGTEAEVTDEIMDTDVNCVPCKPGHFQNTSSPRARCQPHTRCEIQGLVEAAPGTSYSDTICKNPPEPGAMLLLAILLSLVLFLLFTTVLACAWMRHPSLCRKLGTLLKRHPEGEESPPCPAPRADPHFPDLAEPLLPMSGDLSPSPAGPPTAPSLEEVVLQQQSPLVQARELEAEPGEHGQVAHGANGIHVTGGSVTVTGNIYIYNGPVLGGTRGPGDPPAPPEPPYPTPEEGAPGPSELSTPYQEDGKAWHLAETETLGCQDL
Assay [6] has the same target. Description: flow cytometry on CHO-K1 cells expressing murine LTbR. In general terms: Flow cytometry measures light scatter and fluorescence of single cells or particles in a stream.

Chain of CD47-His (Q61735 19-140): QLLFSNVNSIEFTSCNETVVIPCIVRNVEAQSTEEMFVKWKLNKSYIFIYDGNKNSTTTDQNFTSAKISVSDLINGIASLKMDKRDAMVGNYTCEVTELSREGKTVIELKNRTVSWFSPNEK

As for SIRPa-Fc Std (Fc fusion), in assay [1], the EC50 (read off the curve) (usually the concentration giving half of the maximal effect) is 0.3 nM.

As to TIGIT Std (receptor), the EC50 (read off the curve) in assay [2] and in assay [3] was 10 nM in each case.

TIGIT-Fc Std (Fc fusion) returned a concentration for a half-maximal effect (EC50 (read off the curve)) in assay [4] of 0.07 nM.

Turning to “murine CD172a(SIRPα)-Fc-LIGHT chimeric protein (from UniProt P97797 32-373) (Fc fusion)”, the EC50 (in general, the concentration at which the effect is half-maximal) in assay [5] was found to be 24 nM. This counts as double-digit nanomolar.

Turning to “murine TIGIT-Fc-LIGHT chimeric protein (from UniProt P86176 29-148) (Fc fusion)”, the EC50 in assay [6] stood at 11 nM. That is a double-digit nanomolar value.
